Assay [1] has as its target T1, human LAMA4 G domain (LG1-5) displayed on 293 cells (human, UniProt Q16363 830-1821).
T1 construct: the vector's tags and membrane anchor are not written here; also called LAMA4-displaying human 293 cells; full length
T1 sequence: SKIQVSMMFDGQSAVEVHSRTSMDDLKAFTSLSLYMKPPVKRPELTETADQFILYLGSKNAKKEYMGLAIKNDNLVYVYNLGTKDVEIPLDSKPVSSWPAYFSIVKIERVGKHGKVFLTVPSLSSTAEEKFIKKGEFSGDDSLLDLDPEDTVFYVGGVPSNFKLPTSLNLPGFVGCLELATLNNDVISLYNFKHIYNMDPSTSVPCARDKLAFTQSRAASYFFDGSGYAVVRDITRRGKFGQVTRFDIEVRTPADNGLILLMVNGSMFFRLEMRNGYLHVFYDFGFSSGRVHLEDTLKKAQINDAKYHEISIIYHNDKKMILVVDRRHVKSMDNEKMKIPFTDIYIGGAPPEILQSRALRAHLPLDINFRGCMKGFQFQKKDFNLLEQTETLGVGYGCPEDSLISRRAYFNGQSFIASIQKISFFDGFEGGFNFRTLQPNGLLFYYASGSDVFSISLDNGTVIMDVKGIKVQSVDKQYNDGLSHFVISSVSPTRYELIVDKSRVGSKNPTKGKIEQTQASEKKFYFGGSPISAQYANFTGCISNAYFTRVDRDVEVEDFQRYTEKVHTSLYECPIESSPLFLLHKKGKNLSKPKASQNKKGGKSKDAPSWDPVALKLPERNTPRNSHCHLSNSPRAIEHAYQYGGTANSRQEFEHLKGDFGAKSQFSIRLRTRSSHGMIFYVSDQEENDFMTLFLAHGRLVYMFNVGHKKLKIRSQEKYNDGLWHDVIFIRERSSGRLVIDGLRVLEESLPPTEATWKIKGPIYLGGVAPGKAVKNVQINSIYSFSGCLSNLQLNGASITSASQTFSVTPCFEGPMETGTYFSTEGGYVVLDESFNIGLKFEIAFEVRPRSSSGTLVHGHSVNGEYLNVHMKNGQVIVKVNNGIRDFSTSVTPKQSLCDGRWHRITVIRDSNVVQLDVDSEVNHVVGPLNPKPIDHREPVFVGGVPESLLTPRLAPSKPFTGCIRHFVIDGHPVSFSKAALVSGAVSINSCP
Description: LAMA4 pDisplay flow cytometric blocking assay on LAMA4-displaying 293 cells; blocked ligand: 650-conjugated mouse MCAM-Fc. On the technique in general: In flow cytometry, cells or beads pass a laser one at a time.

The target in assay [2] is T2, mouse His-laminin-α4 (mouse, UniProt P97927 826-1816, limits assumed).
T2 construct: Bought His-tagged recombinant protein; also called Murine LAMA4; recombinant mouse LAMA4-His
T2 sequence (looked up): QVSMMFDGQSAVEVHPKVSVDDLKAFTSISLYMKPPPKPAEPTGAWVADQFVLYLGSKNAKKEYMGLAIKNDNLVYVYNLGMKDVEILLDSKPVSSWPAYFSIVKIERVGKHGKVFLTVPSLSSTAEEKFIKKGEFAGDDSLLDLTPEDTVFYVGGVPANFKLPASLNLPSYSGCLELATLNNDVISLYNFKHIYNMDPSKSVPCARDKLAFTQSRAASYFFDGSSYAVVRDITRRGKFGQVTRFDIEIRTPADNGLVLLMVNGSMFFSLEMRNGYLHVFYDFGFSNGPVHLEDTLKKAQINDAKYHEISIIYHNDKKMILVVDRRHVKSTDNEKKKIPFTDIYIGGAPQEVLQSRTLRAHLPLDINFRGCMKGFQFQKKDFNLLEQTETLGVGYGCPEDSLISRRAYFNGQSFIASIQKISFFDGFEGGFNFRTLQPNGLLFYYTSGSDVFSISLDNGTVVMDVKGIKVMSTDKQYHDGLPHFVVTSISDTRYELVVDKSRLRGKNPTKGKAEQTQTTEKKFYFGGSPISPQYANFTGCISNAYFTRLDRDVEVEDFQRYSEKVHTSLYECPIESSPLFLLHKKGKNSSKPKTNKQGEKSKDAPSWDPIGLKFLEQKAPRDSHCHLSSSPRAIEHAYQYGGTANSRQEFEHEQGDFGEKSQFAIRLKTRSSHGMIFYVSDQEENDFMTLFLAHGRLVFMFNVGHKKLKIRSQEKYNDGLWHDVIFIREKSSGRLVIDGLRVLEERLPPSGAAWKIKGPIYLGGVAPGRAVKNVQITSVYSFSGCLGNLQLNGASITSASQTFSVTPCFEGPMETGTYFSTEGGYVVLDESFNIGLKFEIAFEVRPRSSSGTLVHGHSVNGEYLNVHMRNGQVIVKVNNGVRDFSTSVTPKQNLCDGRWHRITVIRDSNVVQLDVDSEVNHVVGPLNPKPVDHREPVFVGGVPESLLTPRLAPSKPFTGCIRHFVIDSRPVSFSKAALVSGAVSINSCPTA
Description: ELISA hMCAM-Fc capture blocking assay; antibody pre-incubated with mouse LAMA4-His; blocked partner: captured hMCAM-Fc.

The target in assay [3] is T3, human LAMA4 LG1-3 modules displayed on 293 cells (human, UniProt Q16363 830-1430).
T3 construct: pDisplay construct on 293 cells; vector tags and anchor not written here
T3 sequence: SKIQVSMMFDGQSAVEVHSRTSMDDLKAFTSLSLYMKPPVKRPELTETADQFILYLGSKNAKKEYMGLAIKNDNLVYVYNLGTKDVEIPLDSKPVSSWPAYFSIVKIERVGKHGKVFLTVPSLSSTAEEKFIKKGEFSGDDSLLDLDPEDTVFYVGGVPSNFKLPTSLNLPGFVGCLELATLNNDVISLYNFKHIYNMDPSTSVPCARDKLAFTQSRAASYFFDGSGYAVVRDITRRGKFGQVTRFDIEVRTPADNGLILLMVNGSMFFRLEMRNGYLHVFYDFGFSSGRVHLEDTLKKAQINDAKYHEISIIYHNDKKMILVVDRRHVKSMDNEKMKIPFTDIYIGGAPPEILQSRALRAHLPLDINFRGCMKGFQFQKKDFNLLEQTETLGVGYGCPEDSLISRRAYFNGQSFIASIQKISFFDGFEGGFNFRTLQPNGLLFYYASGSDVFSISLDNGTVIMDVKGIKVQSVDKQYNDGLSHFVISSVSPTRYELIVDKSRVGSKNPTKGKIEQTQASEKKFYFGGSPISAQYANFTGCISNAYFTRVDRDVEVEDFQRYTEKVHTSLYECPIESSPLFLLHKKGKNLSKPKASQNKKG
Description: flow cytometry on 293 cells displaying LAMA4 G-domain variants; % binding. From the text: LGde1 has a full-length G domain (i.e., LG1-5) with LG1 deleted, LGde2 has a full-length G domain with LG2 deleted, and LGde3 has a full-length G domain with LG3 deleted. Recombinant MCAM-Fc protein was able to specifically bind 293 cells expressing LAMA4 variants LG1-5, LG1-3, and LGde 1 (LG23), but not 293 cells expressing LAMA 4 variants LG4-5, LGde2 (LG13), or LGde3 (LG12).

B1: mouse monoclonal antibody 19C12 (antibody, V domains shown)
VH: QVQLQQSGAELVKPGASVKISCKASGYAFSTYWMNWVKQRPGEGLEWIGQIYPGDGDTNYNGKFKGKATLTADKSSSTAYMQLSSLTSEDSAVYFCARSDGYYDYWGQGTTLTVSS
VL: NIVLTQSPASLAVSLGQRATISCRASESVDSYGTSFMHWYQQKPGQPPKLLICLASSLESGVPARFSGSGSRTDFTLTIDPVEADDAATYYCQQNNEDPPTFGAGTKLELKR
notes: Mouse hybridoma antibody; Mouse IgG2b was used as its isotype control; also called m19C12
For B1, the results for the “IC50 (read off the curve)” value in assay [1] and in assay [2] were approximately 0.03 µg/mL and approximately 0.1 µg/mL, respectively.

B2: mouse MCAM-Fc fusion protein (Fc fusion, UniProt Q8R2Y2 24-563, looked up)
chain: VPGEEKQPVPTPDLVEAEVGSTALLKCGPSRASGNFSQVDWFLIHKERQILIFRVHQGKGQREPGEYEHRLSLQDSVATLALSHVTPHDERMFLCKSKRPRLQDHYVELQVFKAPEEPTIQANVVGIHVDRQELREVATCVGRNGYPIPQVLWYKNSLPLQEEENRVHIQSSQIVESSGLYTLKSVLSARLVKEDKDAQFYCELSYRLPSGNHMKESKEVTVPVFYPAEKVWVEVEPVGLLKEGDHVTIRCLTDGNPQPHFTINKKDPSTGEMEEESTDENGLLSLEPAEKHHSGLYQCQSLDLETTITLSSDPLELLVNYVSDVQVNPTAPEVQEGESLTLTCEAESNQDLEFEWLRDKTGQLLGKGPVLQLNNVRREAGGRYLCMASVPRVPGLNRTQLVSVGIFGSPWMALKERKVWVQENAVLNLSCEASGHPQPTISWNVNGSATEWNPDPQTVVSTLNVLVTPELLETGAECTASNSLGSNTTTIVLKLVTLTTLIPDSSQTTGLSTLTVSPHTRANSTSTEKKLPQPESKGVV
notes: extracellular domain; Made in house; also called mMCAM-Fc; 650-conjugated mouse MCAM-Fc; not shown: human IgG1 (Fc part of the fusion)
B2: the binding result in assay [3] is recorded as “binds”.

For the origin of these results see US20170158755A1 (PROTHENA BIOSCIENCES, published 2017).
